In the Immune Epitope Database (IEDB):

Tests used:
Test in all cases: IEDB peptide-MHC binding, purified MHC/competitive/fluorescence; ≥ and ≤ were set here for values at or beyond the usual limits of such assays
Conditions in all cases: source organism: Homo sapiens
HLA-A*01:01 = molecular target: HLA-A*01:01
HLA-A*02:01 = molecular target: HLA-A*02:01
HLA-A*03:01 = molecular target: HLA-A*03:01
HLA-A*11:01 = molecular target: HLA-A*11:01
HLA-A*24:02 = molecular target: HLA-A*24:02
HLA-A*25:01 = molecular target: HLA-A*25:01
HLA-A*29:02 = molecular target: HLA-A*29:02
HLA-A*31:01 = molecular target: HLA-A*31:01
HLA-A*68:02 = molecular target: HLA-A*68:02
HLA-B*07:02 = molecular target: HLA-B*07:02
HLA-B*08:01 = molecular target: HLA-B*08:01
HLA-B*14:02 = molecular target: HLA-B*14:02
HLA-B*18:01 = molecular target: HLA-B*18:01
HLA-B*35:01 = molecular target: HLA-B*35:01
HLA-B*37:01 = molecular target: HLA-B*37:01
HLA-B*40:02 = molecular target: HLA-B*40:02
HLA-B*44:03 = molecular target: HLA-B*44:03
HLA-B*51:01 = molecular target: HLA-B*51:01
HLA-B*53:01 = molecular target: HLA-B*53:01
HLA-B*58:01 = molecular target: HLA-B*58:01

IC50 (HLA-A*01:01) [µM]	IC50 (HLA-A*02:01) [µM]	IC50 (HLA-A*03:01) [µM]	IC50 (HLA-A*11:01) [µM]	IC50 (HLA-A*24:02) [µM]	IC50 (HLA-A*25:01) [µM]	IC50 (HLA-A*29:02) [µM]	IC50 (HLA-A*31:01) [µM]	IC50 (HLA-A*68:02) [µM]	IC50 (HLA-B*07:02) [µM]	IC50 (HLA-B*08:01) [µM]	IC50 (HLA-B*14:02) [µM]	IC50 (HLA-B*18:01) [µM]	IC50 (HLA-B*35:01) [µM]	IC50 (HLA-B*37:01) [µM]	IC50 (HLA-B*40:02) [µM]	IC50 (HLA-B*44:03) [µM]	IC50 (HLA-B*51:01) [µM]	IC50 (HLA-B*53:01) [µM]	IC50 (HLA-B*58:01) [µM]	Sequence
≥ 20	≥ 20	≥ 20	≥ 20	≥ 20	≥ 20	≥ 20	15.5	5.66	≥ 20	≥ 20	≥ 20	≥ 20	≥ 20	≥ 20	≥ 20	≥ 20	≥ 20	≥ 20	≥ 20	ELFARSSDPR
≥ 20	≥ 20	≥ 20	0.386	≥ 20	≥ 20	≥ 20	≥ 20	≥ 20	13.7	≥ 20	≥ 20	≥ 20	0.975	≥ 20	≥ 20	≥ 20	≥ 20	≥ 20	≥ 20	LVTMGTGTFGR
≥ 20	≥ 20	≥ 20	≥ 20	≥ 20	≥ 20	≥ 20	≥ 20	≥ 20	≥ 20	≥ 20	≥ 20	≥ 20	≥ 20	0.317	2.06	≥ 20	≥ 20	≥ 20	≥ 20	RQSSGSSSSGF
